Results reported in the supplement of paper PMC7125110.
± gives the standard error. Fewer inactive variants are shown than the library holds.

B1: glmS ribozyme (parent)
chain: AUAAAAGCGCCAGAACUACAGAAAUGUAGUUGACGAGGAGGAGGUUUAUCGAAUUUUCGGCGGAUGCCUCCAAA

Tests used:
Conditions in all cases: with glucosamine-6-phosphate
[1] = variants of: B1; assay: self-cleavage kobs at 40 uM GlcN6P; higher = faster cleavage; RNA array
Procedure, shortened: (§1)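 kobs was derived by fitting per-tile medians to one- or two-exponential decays after normalising signals to baseline and to non-cleaving reference variants. Those signals came from barcoded ribozyme variants transcribed in situ by E. coli RNA polymerase on sequenced MiSeq chips, followed through a hybridised Cy3 probe at 37 °C and imaged over ~14 h. Glucosamine-6-phosphate (40 μM to 10 mM) in HEPES/KCl/Mg(OAc)2 buffer was flowed in. Weighted Michaelis–Menten fits across concentrations then gave kcat and KM.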

[2] = variants of: B1; assay: self-cleavage kobs at 160 uM GlcN6P; higher = faster cleavage; RNA array
Procedure, shortened: as §1

[3] = variants of: B1; assay: self-cleavage kobs at 640 uM GlcN6P; higher = faster cleavage; RNA array
Procedure, shortened: as §1

[4] = variants of: B1; assay: self-cleavage kobs at 2500 uM GlcN6P; higher = faster cleavage; RNA array
Procedure, shortened: as §1

[5] = variants of: B1; assay: self-cleavage kobs at 10000 uM GlcN6P; higher = faster cleavage; RNA array
Procedure, shortened: as §1

| Variant | self-cleavage kobs at 40 uM GlcN6P [1] [s⁻¹] | self-cleavage kobs at 160 uM GlcN6P [2] [s⁻¹] | self-cleavage kobs at 640 uM GlcN6P [3] [s⁻¹] | self-cleavage kobs at 2500 uM GlcN6P [4] [s⁻¹] | self-cleavage kobs at 10000 uM GlcN6P [5] [s⁻¹] |
| --- | --- | --- | --- | --- | --- |
| AUAAAAGCGCCAGAACUACAGAAAUGUAGUUGACUAGGAGGAGGUUUAUCGAAUUUUCGGCGGAUUCCUCCAAA | < 1e-05 | < 1e-05 | < 1e-05 | < 1e-05 | < 1e-05 |
| AUAAAAGCGCCAGUACUACAGAAAUGUAGUUGACGAGGAGGAGGUUUAUCGAAUUCUCGGCGGAUGCCUCCAAA | 5.38e-05 ± 1.8e-05 | – | 0.000234 ± 4.8e-05 | 0.000307 ± 7.6e-05 | 0.00138 ± 0.00027 |
| AUAAAAGCGCCAGAACUACAGAAAUGUAGUUGACCAGGAGGAGGUUUAUCGAAUUUUCGGGGGAUGCCUCCAAA | < 1e-05 | < 1e-05 | < 1e-05 | – | – |
| AUAAAAGCGUCAGUAGUACAGAAAUGUAGUUGACGAGGAGGAGGUUUAUCGAAUUUUCGGCGGAUGCCUCCAAA | < 1e-05 | – | – | – | – |
| AUAAAAGCGCCAGAACUACAGAAAUGUAGUAGACGACGAGGAGGUUUAUCGAAUUUUCGGCGGAUGCCGCCAAA | < 1e-05 | – | – | – | – |
| AUAAAAGCGCCAGAACUACAGAAAUGUAGUUGACGAGGAGGAGGUUUAUCGAAGUUUCGGCUGAUGCCUCCAAA | < 1e-05 | < 1e-05 | < 1e-05 | < 1e-05 | < 1e-05 |
| AUAAAAGCGCCAGAACUACAGAAAUGUAGUUGACGAGGAGGAGGUUUAUCGAAUUUUCGGUGGAUGCCUCAAAA | < 1e-05 | < 1e-05 | < 1e-05 | < 1e-05 | – |
| AUAAACGCGCCAGAACUACAGAAAUGUAGUUGACGAGGAGGAGGUUUAUCGAAUUUUCGACGGAUGCCUCCAAA | < 1e-05 | – | < 1e-05 | < 1e-05 | – |
| AUAAAAGCGCGAGAACUACAGAAAUGUAGUUGACGAGGUGGAGGUUUAUCGAAUUUUCGACGGAUGCCUCCAAA | < 1e-05 | < 1e-05 | < 1e-05 | < 1e-05 | – |
| AUAAAAGCGCCGGAAUUACAGAAAUGUAGUUGAAGAGGUGGAGGUUUAUCGAAUUUUCGACGGAUGCCGCCAAA | < 1e-05 | – | – | – | – |
| AUAAAAGGGCCAGAACUACAGAAAUGUAGUUGACGAGGAGGAUGUUUAUCGAAUUUUCGGCGGAAGCCUCGAAA | < 1e-05 | – | < 1e-05 | < 1e-05 | < 1e-05 |
| AUAAAAGCGCCAGAACUACAGAAAUGUAGUUUACGAGGAGGAGUAUUAUCGAAUUUUCGGCGGAUGCCUCCAAA | < 1e-05 | – | – | – | – |
| AUAAAAGCGCCAGAACUACAGAAAUGUAGUUGACGAGGUGGAGGUUUAUCGAAUACUCGGCGGAUGCCUCCAAA | 2.36e-05 ± 8.3e-06 | – | – | – | 0.00213 ± 0.00023 |
| AUAAAAGUGCCAGAACUACAGAAAUGUAGUUGACGAGGAGGAGGUUUAUCGAAUCUUCGGCGGAUGCCUCCAAA | < 1e-05 | – | < 1e-05 | < 1e-05 | < 1e-05 |
| AUAAAAGCGCCAGUACUACAGAAAUGUAGUUGACCAGGAGGAGGUUUAUCGAAUUUUCGGCGGAUGCCUCCAAA | < 1e-05 | < 1e-05 | < 1e-05 | < 1e-05 | < 1e-05 |
| AUAAAAGCGCCGGAACUACAGAAAUGUAGUUGGUGAGGAGGAGGUUUCUCGAAUUUUCGGCGGAUGCCUCGAAA | < 1e-05 | – | – | – | – |
| AUAAAAGCGCCACAACUACAGAAAUGUAGUUGACGGGGUGGAGGUUUAUCGAAUUUUCGGCGGAUGCCUCCAAA | < 1e-05 | – | < 1e-05 | < 1e-05 | – |
| AUAAAAGCGCCAGAACUACAGAAAUGUAGUUGACGAGGAGGAGGUUUAUCGAAUUUUGGGCGGGUGCAUCCAAA | 4.76e-05 ± 1.8e-05 | – | 0.00061 ± 0.00029 | 5.81e-05 ± 2.1e-05 | – |
| AUAAAAGCGCCAGAACUACAGAAAUGUAGGUGACGAGGAGGAGGUUUAUCGCAUUUUCGGCUGAUGCCUCCAAA | < 1e-05 | – | – | – | < 1e-05 |
| AUAAAAGCGCCAGAACUACAGAAAUGUAGUUGAGGAGGAGGAGGUUUAUCGAUUUUUCGGCGUGUGCCUCCAAA | < 1e-05 | – | – | – | < 1e-05 |
| AUAAAAGCGCCAGAACUAUAGAAAUGUAGUUGACGAGGAGGAGGUUUAUCGAAUUUUCGGCGGAUGCCUCCAAA | 0.00125 ± 0.00046 | 0.00445 ± 0.0011 | 0.00527 ± 0.0011 | 0.0229 ± 0.0083 | – |
| AUAAAAGAGCCAGAACUACAGAAAUGUAGUUGACGAGGAGGAGGUUUAUUGAAUUUUCGGCGGAUGGCUCCAAA | < 1e-05 | – | – | – | – |
| AUAAAAGCGCCCGAACUACAGAAAUGUAGUUGACGAGGAGGAGGUUUAUCGAAUUGUCGGCGGAUGCAUACAAA | < 1e-05 | – | – | – | – |
| AUAAAAGCGCCAGAACUACAGAAAUGUAGUUGACCAGGAAGAGGUUUAUCGAAUUUUCGGCGGAUGCCUCCAAA | < 1e-05 | < 1e-05 | < 1e-05 | < 1e-05 | < 1e-05 |
| AUAAAAGCGCCAGAACUACAGAAAUGUAGUUGACGGGGAGGAGGUUUAUCUAAUUUUCGGCGGAUGCCUCCAAA | < 1e-05 | – | < 1e-05 | – | < 1e-05 |
| AUAAAAGCGCCAGAACUACAGAAAUGUAGUUGACGAGGAGUAGGUUUAUCGAAUUUUCUGCGGAUGCCUCCAAA | < 1e-05 | < 1e-05 | < 1e-05 | – | – |
